According to IntAct's records for PubMed 31515488:

B1: "N-acyl-aromatic-L-amino acid amidohydrolase (carboxylate-forming)" (Homo sapiens), Q96HD9 (parent)
chain: MCSLPVPREPLRRVAVTGGTHGNEMSGVYLARHWLHAPAELQRASFSAVPVLANPAATSGCRRYVDHDLNRTFTSSFLNSRPTPDDPYEVTRARELNQLLGPKASGQAFDFVLDLHNTTANMGTCLIAKSSHEVFAMHLCRHLQLQYPELSCQVFLYQRSGEESYNLDSVAKNGLGLELGPQPQGVLRADIFSRMRTLVATVLDFIELFNQGTAFPAFEMEAYRPVGVVDFPRTEAGHLAGTVHPQLQDRDFQPLQPGAPIFQMFSGEDLLYEGESTVYPVFINEAAYYEKGVAFVQTEKFTFTVPAMPALTPAPSPAS
partner: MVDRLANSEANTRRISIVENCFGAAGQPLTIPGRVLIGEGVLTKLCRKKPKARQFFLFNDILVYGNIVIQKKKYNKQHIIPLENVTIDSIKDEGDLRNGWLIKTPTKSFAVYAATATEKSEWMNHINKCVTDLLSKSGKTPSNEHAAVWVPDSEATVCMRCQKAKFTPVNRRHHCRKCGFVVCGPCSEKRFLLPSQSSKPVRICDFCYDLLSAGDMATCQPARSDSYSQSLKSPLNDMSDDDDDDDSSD
B2: G-patch domain and KOW motifs-containing protein (Homo sapiens), Q92917 (parent)
chain: MADSKEGVLPLTAASTAPISFGFTRTSARRRLADSGDGAGPSPEEKDFLKTVEGRELQSVKPQEAPKELVIPLIQNGHRRQPPARPPGPSTDTGALADGVVSQAVKELIAESKKSLEERENAGVDPTLAIPMIQKGCTPSGEGADSEPRAETVPEEANYEAVPVEAYGLAMLRGMGWKPGEGIGRTFNQVVKPRVNSLRPKGLGLGANLTEAQALTPTGPSRMPRPDEEQEKDKEDQPQGLVPGGAVVVLSGPHRGLYGKVEGLDPDNVRAMVRLAVGSRVVTVSEYYLRPVSQQEFDKNTLDLRQQNGTASSRKTLWNQELYIQQDNSERKRKHLPDRQDGPAAKSEKAAPRSQHWLHRDLRVRFVDNMYKGGQYYNTKMIIEDVLSPDTCVCRTDEGRVLEGLREDMLETLVPKAEGDRVMVVLGPQTGRVGHLLSRDRARSRALVQLPRENQVVELHYDAICQYMGPSDTDDD
partner: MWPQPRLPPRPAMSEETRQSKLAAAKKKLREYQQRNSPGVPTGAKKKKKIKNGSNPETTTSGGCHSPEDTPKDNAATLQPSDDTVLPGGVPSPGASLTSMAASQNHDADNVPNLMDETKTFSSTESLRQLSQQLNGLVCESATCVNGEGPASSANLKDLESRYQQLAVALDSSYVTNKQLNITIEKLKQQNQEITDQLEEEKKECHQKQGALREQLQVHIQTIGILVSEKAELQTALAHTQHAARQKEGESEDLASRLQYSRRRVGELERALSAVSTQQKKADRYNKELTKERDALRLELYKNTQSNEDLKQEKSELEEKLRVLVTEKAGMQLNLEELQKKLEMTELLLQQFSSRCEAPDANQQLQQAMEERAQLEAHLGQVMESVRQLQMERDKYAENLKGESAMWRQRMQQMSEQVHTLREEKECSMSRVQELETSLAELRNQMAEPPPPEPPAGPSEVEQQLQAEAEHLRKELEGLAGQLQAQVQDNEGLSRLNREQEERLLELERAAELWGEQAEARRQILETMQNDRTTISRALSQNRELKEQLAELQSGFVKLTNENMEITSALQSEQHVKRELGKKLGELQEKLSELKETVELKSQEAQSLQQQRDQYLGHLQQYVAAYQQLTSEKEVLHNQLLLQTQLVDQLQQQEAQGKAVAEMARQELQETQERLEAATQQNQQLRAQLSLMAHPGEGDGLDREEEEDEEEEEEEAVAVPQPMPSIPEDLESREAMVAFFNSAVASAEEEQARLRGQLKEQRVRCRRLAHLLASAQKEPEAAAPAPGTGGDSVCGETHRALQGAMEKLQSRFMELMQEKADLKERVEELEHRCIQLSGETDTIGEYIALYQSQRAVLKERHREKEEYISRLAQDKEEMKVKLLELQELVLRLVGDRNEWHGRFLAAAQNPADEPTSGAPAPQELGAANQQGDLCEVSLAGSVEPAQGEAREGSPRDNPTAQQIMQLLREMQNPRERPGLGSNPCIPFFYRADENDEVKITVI
B3: NF-kappa-B inhibitor delta (Homo sapiens), Q8NI38 (parent)
chain: MEAGPWRVSAPPSGPPQFPAVVPGPSLEVARAHMLALGPQQLLAQDEEGDTLLHLFAARGLRWAAYAAAEVLQVYRRLDIREHKGKTPLLVAAAANQPLIVEDLLNLGAEPNAADHQGRSVLHVAATYGLPGVLLAVLNSGVQVDLEARDFEGLTPLHTAILALNVAMRPSDLCPRVLSTQARDRLDCVHMLLQMGANHTSQEIKSNKTVLHLAVQAANPTLVQLLLELPRGDLRTFVNMKAHGNTALHMAAALPPGPAQEAIVRHLLAAGADPTLRNLENEQPVHLLRPGPGPEGLRQLLKRSRVAPPGLSS
partner: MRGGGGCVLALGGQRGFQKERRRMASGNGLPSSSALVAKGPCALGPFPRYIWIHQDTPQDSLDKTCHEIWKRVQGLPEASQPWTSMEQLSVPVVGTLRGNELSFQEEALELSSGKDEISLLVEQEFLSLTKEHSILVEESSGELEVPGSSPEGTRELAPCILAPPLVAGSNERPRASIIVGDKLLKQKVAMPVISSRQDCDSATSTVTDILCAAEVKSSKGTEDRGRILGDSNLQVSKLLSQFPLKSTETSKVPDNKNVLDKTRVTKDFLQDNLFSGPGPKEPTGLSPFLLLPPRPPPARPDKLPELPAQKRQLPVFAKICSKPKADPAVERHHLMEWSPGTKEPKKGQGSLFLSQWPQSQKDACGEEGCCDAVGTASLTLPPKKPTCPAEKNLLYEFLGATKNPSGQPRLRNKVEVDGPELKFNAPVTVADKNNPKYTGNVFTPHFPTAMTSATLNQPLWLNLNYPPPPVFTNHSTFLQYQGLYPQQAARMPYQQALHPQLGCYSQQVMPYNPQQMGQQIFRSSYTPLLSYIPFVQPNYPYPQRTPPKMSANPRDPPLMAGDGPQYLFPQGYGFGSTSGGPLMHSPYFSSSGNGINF
B4: U3 small nucleolar RNA-associated protein 14 homolog C (Homo sapiens), Q5TAP6 (parent)
chain: MNVNQVAENLALSHQEELVDLPKNYPLSENEDEGDSDGERKHQKLLEAIISLDGKNRRKLAERSEASLKVSEFSVSSEGSGEKLGLADLLEPVKTSSSLATVKKQLNRVKSKKVVELPLNKEKIEQIHREVAFSKTSQVLSKWDPIILKNQQAEQLVFPLGKEQPAIAPIEHALSGWKARTPLEQEIFNLLHKNKQPVTDPLLTPMEKASLQAMSLEEAKMHRAELQRARALQSYYEAKARKEKKIKSKKYHKVVKKGKAKKALKEFEQLQKVNPTVALEEMEKIENARMMERMSLKHQNSGKWAKSKAIMAKYDLEARQAMQEQLAKNKELTQKLQVASESEEEEGGTEVEELLVPHVANEVQMNVDGPNPWMFRSCTSDTKEAATQEDPEQVPELAAHEVSASEAEERPVAEEEILLREFEERQSLRKRSELNQDAEPASSQETKDSSSQEVLSELRALSQKLKEKHQSRKQKASSEGTVPQVQREEPAPEEAEPLLLQRSERVQTLEELEELGKEDCFQNKELPRPVLEGQQSERTPNNRPDAPKEKKEKEQLINLQNFLTTQSPSVRSLAVPTIIEELEDEEERDQRQMIKEAFAGDDVIRDFLKEKREAVEASKPKDVDLTLPGWGEWGGVGLKPSAKKRRQFLIKAPEGPPRKDKNLPNVIISEKRNIHAAAHQVQVLPYPFTHHRQFERTIQTPIGSTWNTQRAFQKLTTPKVVTKPGHIIKPIKAEDVGYQSSSRSDLPVIQRNPKRITTRHNKEEKL
partner: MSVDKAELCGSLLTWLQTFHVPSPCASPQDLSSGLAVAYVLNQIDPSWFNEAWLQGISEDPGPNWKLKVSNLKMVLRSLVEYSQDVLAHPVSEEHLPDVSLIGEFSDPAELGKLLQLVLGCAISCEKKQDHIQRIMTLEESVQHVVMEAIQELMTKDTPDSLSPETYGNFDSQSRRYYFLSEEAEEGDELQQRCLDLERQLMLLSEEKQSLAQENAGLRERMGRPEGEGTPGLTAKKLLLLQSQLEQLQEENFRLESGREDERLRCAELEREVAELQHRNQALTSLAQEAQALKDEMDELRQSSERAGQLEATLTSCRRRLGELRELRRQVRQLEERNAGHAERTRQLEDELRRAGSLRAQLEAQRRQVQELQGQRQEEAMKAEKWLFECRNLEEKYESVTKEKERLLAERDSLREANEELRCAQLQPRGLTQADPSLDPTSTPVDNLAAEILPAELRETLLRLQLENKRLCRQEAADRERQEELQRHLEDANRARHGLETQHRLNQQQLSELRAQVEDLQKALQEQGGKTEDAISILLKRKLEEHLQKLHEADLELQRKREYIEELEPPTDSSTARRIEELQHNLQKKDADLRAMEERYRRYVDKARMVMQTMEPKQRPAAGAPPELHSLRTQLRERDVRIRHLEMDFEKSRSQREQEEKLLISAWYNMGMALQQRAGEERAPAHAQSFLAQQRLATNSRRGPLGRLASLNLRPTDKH

Variants of: B1
Conditions: with pkhf2_human PLEKHF2, Q9H8W4

Variant	effect of a mutation on the interaction
R8Q	disrupting interaction strength

Variants of: B2
Conditions: with goga2_human GOLGA2, Q08379

Variant	effect of a mutation on the interaction
V393A	with no effect
A129T	with no effect

Variants of: B3
Conditions: with ca094_human C1orf94, Q6P1W5

Variant	effect of a mutation on the interaction
V29A	with no effect

Variants of: B4
Conditions: with hook2_human HOOK2, Q96ED9

Variant	effect of a mutation on the interaction
I170V	with no effect
K247E	with no effect
